Assays:
[1] = molecular target: T1, VEGF 1 ZFP (NLS-ZFP-VP16-FLAG) (synthetic construct (SP1 backbone)); experiment: cell_activity; 293 cells; VEGF protein 1.5; mRNA 2.7 and protein 3.1 in Table 9
T1 chain: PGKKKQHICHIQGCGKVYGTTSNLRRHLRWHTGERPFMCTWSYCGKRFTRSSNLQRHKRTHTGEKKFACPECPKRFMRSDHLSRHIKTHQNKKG
Source text: Activation of the integrated luciferase reporter gene containing VEGF target sites and immunoprecipitation of reporter sequences by the VEGF 1 and VEGF 3a/1 proteins, as shown in examples 10 and 11, provided evidence that these exogenous ZFPs are binding to their target sites in cellular chromatin. To investigate this question further, the expression of the endogenous VEGF gene was examined in cells containing exogenous VEGF 1 and VEGF 3a/1 proteins. Accordingly, the same samples that were analyzed in Examples 10 and 11 were assayed for endogenous VEGF MRNA (by real-time PCR analysis using reverse transcriptase-mediated PCR) and for VEGF protein (by ELISA). […] The apparent activation of the endogenous VEGF gene by the GATA 15.5 ZFP is explained by the data obtained in Example 14, infra.
The production of mRNA and protein from the endogenous VEGF gene was assayed as described in Example 13, and the results are shown in Table 9. […] The activation of the endogenous VEGF gene by GATA 15.5 is consistent with the ability of this protein to immunoprecipitate endogenous VEGF sequences (Table 7).

[2] = molecular target: T1, VEGF 1 ZFP (NLS-ZFP-VP16-FLAG); experiment: ChIP anti-FLAG, 293 cells, GAPDH-normalized
Description: (§1) Immunoprecipitated DNA, obtained as described in Example 11, was used as template in a real-time amplification assay. Three DNA targets were assayed: the integrated reporter gene containing four tandem VEGF 3a/1 binding sites (pGL-VFR), the endogenous VEGF gene, and the endogenous glyceraldehyde phosphate dehydrogenase (GAPDH) gene (which was used as a control for nonspecific precipitation).
(§2) The values obtained for the endogenous VEGF gene (VEGF) and for the integrated reporter containing VEGF target sites (pGL-VFR), normalized to the values obtained for GAPDH, were then normalized to the values obtained for cells transfected with NVF, a construct that lacks a zinc finger DNA-binding domain, to obtain a value for the degree to which VEGF sequences were enriched in immunoprecipitates from cells transfected with a construct encoding a ZFP. […] Furthermore, sequences from an integrated reporter gene containing VEGF target sequences were enriched 170-fold by the VEGF 3a/1 protein and approximately 8-fold by the three-finger VEGF 1 protein.

[3] = molecular target: T1, VEGF 1 ZFP (NLS-ZFP-VP16-FLAG); experiment: ChIP anti-FLAG, 293 cells, GAPDH-normalized; 8.3 in Table 7
Description: as §1, §2

[4] = molecular target: T1, VEGF 1 ZFP (NLS-ZFP-VP16-FLAG); experiment: cell_activity; 293 cells, integrated reporter; 6 in Table 8
[5] = molecular target: BOS 3 fusion (NLS-ZFP-KRAB-FLAG) (synthetic construct); experiment: ChIP anti-FLAG, MCF-7 cells, amplicon 230 bp upstream of site; details: tags: NLS, KRAB repression domain
Description: The sonicated lysate was centrifuged at 13,000 rpm for 10 min at 4° C., and the supernatant was recovered. 1.8 ml of ChIP buffer (16.7 mM Tris-Cl, pH 8.1, 1.2 mM EDTA, 167 mM NaCl, 1.1% Triton X-100, 0.01% SDS, 0.5 mM PMSF, 20 ug/ml aprotinin, 20 ug/ml pepstatin, 20 ug/ml leupeptin) was added to the cleared supernatant and 0.2 ml was removed as a pre-immunoprecipitation (pre-IP) input control. The input control sample was analyzed by agarose gel electrophoresis to verify that DNA fragments of 200-500 nucleotide pairs had been obtained.
The remainder of the sonicated lysate was pre-cleared by adding 0.1 ml of a 50% slurry of Protein A agarose beads (also containing salmon sperm DNA at 200 ug/ml), followed by gentle agitation for 90 min. The lysate was separated from the beads by centrifugation at 1,000 xg for 5 min at 4° C. The cleared lysate was divided into two equal portions. […]
Immune complexes were eluted from the beads by washing them twice with 0.25 ml of 1% SDS, 0.1 M NaHCO₃. […] The purified DNA was analyzed by real-time quantitative PCR, an assay known colloquially as “Taqman®.” The DNA was analyzed for the relative proportion of two sequences: (1) a region located 230 nucleotide pairs upstream of the BOS 3 binding site, and (2) a control sequence from the 18S rRNA gene.

Sequence of BOS 3 fusion (NLS-ZFP-KRAB-FLAG) (synthetic construct) (chain, as listed by the source): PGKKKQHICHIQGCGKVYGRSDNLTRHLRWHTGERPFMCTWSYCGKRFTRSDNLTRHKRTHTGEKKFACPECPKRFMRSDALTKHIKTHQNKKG

B1: endogenous VEGF-A gene target at +1 accessible region (dsDNA)
DNA 1: GGGGAGGATCGCGGAGGCTT
DNA 2: AAGCCTCCGCGATCCTCCCC
[1]
  activity: 3.2 fold VEGF mRNA vs NVF
[2]
  binding signal: 4.1 fold enrichment vs NVF

B2: pGL-VFR integrated reporter, VEGF 3a/1 target (four tandem copies) (dsDNA)
DNA 1: GGGGAGGATCGCGGAGGCTT
DNA 2: AAGCCTCCGCGATCCTCCCC
[3]
  binding signal: 10.7 fold enrichment vs NVF
[4]
  activity: 2.7 fold luciferase vs NVF

B3: endogenous ER-alpha gene BOS 3 site, -2 kb hypersensitive region (dsDNA)
DNA 1: GGGGAGGAG
DNA 2: CTCCTCCCC
[5]
  binding signal: ~20 fold enrichment vs cells without BOS3

Reference: patent US20020064802, “Methods for binding an exogenous molecule to cellular chromatin” (published 2002)
